Assay results taken from the nanobody polyreactivity screen of Harvey et al. (2022).

Experiment: yeast display, Sf9 membrane polyspecificity reagent, FACS + sequencing; frameworks hold sequencing errors
How it was run: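 Genes from sorted yeast were amplified by colony PCR, read by MiSeq 2 × 250 sequencing and filtered on CDR length. These cells carried a synthetic nanobody library in Saccharomyces cerevisiae BJ5465 and were sorted by FACS into low and high (top ~1%) gates on anti-HA and streptavidin fluorescence. Polyreactivity is labelled according to the gate of origin.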

Sequence: QVQLVESGGGLVQAGGSLRLSCAASGSIFLYNAMGWYRQAPGKERELVADISWSGGSTYYADSVKGRFTISRDNAKNTVYLQMNSLKPEDTAVYYCNAVVYWFSTSYVYTYDYWGQGTQVTVSS
- polyreactivity (PSR sort gate): high polyreactivity

Sequence: QVQLVESGGGLVQAGGSLRLSCAASGNIFGYYVMGWYRQAPGKERELVAGISSGDSTDYADSVKGRFTISRDNAKNTVYLQMNSLKPEDTAVYYCNADWNPTERWFYWYTPLGYDYWGQGTQVTVSS
- polyreactivity (PSR sort gate): low polyreactivity

Sequence: QVQLVDSGGGLVQAGGSLRLSCAASGIIFAYNAMGWYRQAPGKERELVAAITSGTSTHYADSVKGRFTISRDNAKNSVYLHINSLNPEDTAVYYCNADYFFEFDYWGQGTQVTVSS
- polyreactivity (PSR sort gate): low polyreactivity

Sequence: QVQLVESGGGLVQAGGSLRLSCAASGRIGKYAMGWYRQAPGKERELVATISSTGTTNYADSVKGRFTISRDNAKNTVYLKMNSLKPEDTAVYYCAARWEYVGYRRRYYRFDYWGQGTQVTVSS
- polyreactivity (PSR sort gate): high polyreactivity

Sequence: QVQLVESGGGLVQAGGRLRLSCAASGGTFYYYAMGWYRQAPGKERELVAAIRRRGGGTYSADSVKGRFTISRDNAKNTVYLQMNSLKPEDTAVYYCARDKLRSWWGDYNTYYPDDSWGQGTQVTVSS
- polyreactivity (PSR sort gate): high polyreactivity

Sequence: QVQLVESGGGLVQAGGSLRLSCAASGFIFDPYAMGWYRPAPGKERELVAVITYSAGSTYADSVNGRFTISRDNAKNTVYLQMNSLKPEDTAVYYCAKRWWYNVPLGVLYDYWGQGTQVTVSS
- polyreactivity (PSR sort gate): low polyreactivity

Sequence: QVQLVESGGGLVQAGGSLRLSCAASGRIFTTYAMGWYRQAPGKERELVAAISRSGGSTYYADSVKGRFTISRDNAKNSVYLQMNSLKPEDTAVYYCAAVPTSNSFRSSFYYWGQGTQVTVSS
- polyreactivity (PSR sort gate): high polyreactivity

Sequence: QVQLVESGGGLVQAGGSLRLSCAASGYTFSVNVMGWYRQAPGKERELVAAISGRGGRTYYADSVKGRFTISRDNAKNTVYLQMNSLKPEDTAVYYCAAVRGKPGRISYPYDYWGQGTQVTVSS
- polyreactivity (PSR sort gate): high polyreactivity

Sequence: QVQLVESGGGLVQAGGSLRLSCAASGRIFTPYAMGWYRKAPGKERELGAVIRDGSTYYADSVKGRFTISRDNAKNTVYLQMNRLKPEDTAVYYCAAVNYYDQYGDYYWGQGTQVTVSS
- polyreactivity (PSR sort gate): low polyreactivity

Sequence: QVQLVESGGGLVQAGGSLRLSCAASGRTIVTNAMGWYRQAPGKERELVAAITTRGSRTYYADSVKGRFTISRDNAKNTVYLQMNSLKPEDTAVYYCAAKQKHTQQTGWKYEYWGQGTQVTVSS
- polyreactivity (PSR sort gate): high polyreactivity

Sequence: QVQLVESGGGLVQAGGSLRLSCAASGFIFAHNAMGWYRQAPGKARELVAAITSSGGSTYYADSVKGRFTISRDNAKNTVYLQKNSLKPEDTAVYYCNAYTYARRGYDYWGQGTQVTVSS
- polyreactivity (PSR sort gate): high polyreactivity

Sequence: QVQLVESGGGLVQAGGSLRLSCAASGSTFSDYVMGWYRQAPGKEREFVDAISWTGGITYYADSVKGRFTISRDNAKNTVYLQMNSLKPEDTAVYYSAAKRKYYGNGYWGQGTQVTVSS
- polyreactivity (PSR sort gate): high polyreactivity

Sequence: QVQLVESGGGLVQAGGSLRLSCAASGRIFVYNVMGWYRQAPGKERELVADISVGGGSTYYADSVKGRFTISRDNAKNTVYLQMNSLKPEDTAVYYCAASYYSGQSVRDDIMYYWGQGTQVTVSS
- polyreactivity (PSR sort gate): low polyreactivity

Sequence: QVQLVESGGGLVQAGGSLRLSCAASGLIFAHNTMGWYRQATGKERELVAAISATGDGNTYYADSLKGRFTISRDNAKNTVYLQMNSLKPEDTAVYYCNALYYDYYAEYYGESDYWGQGTQVTVSS
- polyreactivity (PSR sort gate): low polyreactivity

Sequence: QVQLVESGGGLVQAGGSLRLSCAASGSTFGWYAMGWYRQAPGKERELVAAISYIGGSTYADSVKGRFTISRDNAKNTVYLQMKSLKPEDTAVYYCNAVVYGKSYGSRIYDYWGQGTQVTVSS
- polyreactivity (PSR sort gate): high polyreactivity

Sequence: QVQLVESGGGVVQAGGSLRLSCAASGRNFYSYAMGLYTQAPGKERELVAAISKRGTSTYYADSVKGRFTISRDNAKNTVYLQMNSLKPEDTAVYYCAAVHWRYQYSLRYDYWGQGTQVTVSS
- polyreactivity (PSR sort gate): high polyreactivity

Sequence: QVQLVESGGGLVQAGGSLRLSCAASGTTFDVYAMGWSRQAPGKERELVAAITSGGTTNYADSVKGRFTISRDNAKNPVFFQMNSLKPEDTAVYYCAKDSRNVYWDYGYWGQGTQVSVSS
- polyreactivity (PSR sort gate): low polyreactivity

Sequence: QVQLVESGGGLVQAGGSLRLSCAASGSTFGGNAMGWYRQAPGKERELVAAISSGDSTTYADSVKGRFTISRDNAKNTVYLQMNSLKPEDTAVYYSNRSPKSGQVTYLYSVNAHYDYWGQGTQVTVSS
- polyreactivity (PSR sort gate): low polyreactivity

Sequence: QVQLVESGGGFVQAGGSLRLSCAASGSIFDYYTMGWYRQAPGKEREFVAGISDSGGSTNYADSVKGRFTISRDNAKNTVYLQMNSLKPEDTAVYYCNAEYVGWFYKYDYWGQGTQVTVSS
- polyreactivity (PSR sort gate): high polyreactivity

Sequence: QVQLVESGGGLVQAGGSLRLSCAASGGTFLVYAMGWYRQAPGKERELVAAITRSGGSTYYADSVKGRFTISRDNAKNTVYLQMNSLKPEDTAVYYCNARYRNSGRYWDWYYYWGQGTQVTVSS
- polyreactivity (PSR sort gate): high polyreactivity

Sequence: QVQLVESGGGLVQAGGSLRLSCAASGRTFSVYAMGWYRQAPGKERELVAAINRGGSTNYADSVKGRFTISRDNAKNTVYLQMNSLKPEDTAVYYCAATYYWGRKAGFDYWGQGTQVTVSS
- polyreactivity (PSR sort gate): low polyreactivity

Sequence: QVQLVESGVGLVQAGVSLRLSCAASVSISTPYTMGWSRPAPGKERELVAAISWIGDTTSYADSVKGRFTISRDNAKNTVYLQMNRLKPEDTAVYYCNAEHRGYDYWGQGTQVTVSS
- polyreactivity (PSR sort gate): low polyreactivity

Sequence: QVQLVESGGGLVQAGGSLRLSCAASGFTFVPYAMGWYRLAPGKEREFVATISWSAGRTYYADSVKGRFTISRDNAKNTVYLQMNSLKPEDTAVYYCNTASYRGYDYWGQGTQVTVSS
- polyreactivity (PSR sort gate): high polyreactivity

Sequence: QVKLVESGGGLVQAGGSLRLSCAASGRIFYYYAMGWYRPAPGKERELVAGITTGGGTNYADSVKGRFTISRDNAKNTVYLQMNSLKPEDTAVYYCATGTEGYSDDYGYWGQGTQVTVSS
- polyreactivity (PSR sort gate): low polyreactivity

Sequence: QVQLVESGGGLVQAGGSLRLSCAASGLTFAYYVMGWYRQAPGKERELVATITRGGDTYYADSVKGRFTISRANAKNTVYVQMNSLTPEDTAVYYCNAVWRVKYRRGLDYWGQGTQVTVSS
- polyreactivity (PSR sort gate): high polyreactivity

Sequence: HVQLVESGGGLVQAGGSLRISCAASGRTFYKNAKGRYRQAPGKEREFVASISVSGGRTYYADSVKGRFTISRDNAKNTVYLQMNILNPEDSAVYYCNARASPLSQRDYWGQGTQVTVSS
- polyreactivity (PSR sort gate): low polyreactivity

Sequence: QVQLVESGGGLVQAGGSLRLSCAASGNTFAAYAMGWYRQAPGKEWELVAAITTSGGITYYADSVKGRFTISRDNAKNTVYLQMNSLKPEDTAVYYCAVDGGRWGQGTQVTVSS
- polyreactivity (PSR sort gate): low polyreactivity

Sequence: QVQRVESGGGLVQAGGSLRLSCAASGRTFPPYAMGWYRQAPGKERELVASIRRGGSTHYADSVKGRFTISRDNAKNTVYLQMNSLKPEDTAVYYCNADVIFGYTHYNYWGQGTQVTVSS
- polyreactivity (PSR sort gate): high polyreactivity

Sequence: QVQLVESGGGLVQAGGSLRLSCDASGSNFFYARGWSRQAPGRERELVADITYTGGSKYADSVKGRFTISRDNAKNTVDLQLNILKPEDTAVSYCAKLDGGLFDYWGQGTQVNVSS
- polyreactivity (PSR sort gate): low polyreactivity

Sequence: QVQLVESGGGIVQAGGSLRLSCAASGSTFVIYTMGWYRPAPGKERELVAAISWSGGITRYADSVKGRFTISRDNAKNTVYLQMNSLKPEDSAVYYCNASQWPSRFDYWGQGTQVTVSS
- polyreactivity (PSR sort gate): low polyreactivity

Sequence: QVQLVESGGGLVQAGGSLRLSCAASGRILDYYAMGWYRQAPGKERELVAAISRSGSDTYYADSVKGRFTISRDNAKNTVYLQMNSLKPEDTAVYYCAARWSYRSLARYNYWGQGTQVTVSS
- polyreactivity (PSR sort gate): low polyreactivity

Sequence: QVQLVESGGGLVQAGGSLRLSCAASGSTFRIYAMGWYRQAPGKERELVAAISSGGRTNYADSVKGRFTISRDNAKNTVYLQMNSLKPEDTAVYYCNAVFLPTYHFDYWGQGTQVTVSS
- polyreactivity (PSR sort gate): high polyreactivity

Sequence: QVQLVESGGGLVQAGGSLRLSCAAYGHIFFYYTMGWYRQAPGKERELVAAITIGGSTNYADSVKGRFTISRDYAKNTVYLQMNSLKPEDTAVYYCNVVKYVYIYSYWEYYYWGHGTQVTVSS
- polyreactivity (PSR sort gate): low polyreactivity

Sequence: QVQLVESGGGLVQAGGSLRLSCAASGLTFHRYAMGWYRQAPGKERELVADISSGDSTNYADSVKGRFTISRDNAKNTVYLQMTSLKPEDTAVYYCNTDGYIYRYRFDYWGQGTQVTVSS
- polyreactivity (PSR sort gate): low polyreactivity

Sequence: QVQLVESGGGLVQAAGSLRLSCAASGFTFEKYVMGRYRQAPGKEREFVAAITRSGGRTYYADSVKGRFTISRDNAKNTVYLQMNSLKPEYTAVYYCAAAFSRSDTGGGSWGQGTQVTVSS
- polyreactivity (PSR sort gate): high polyreactivity

Sequence: QVQLVESGGGLVQAGGSLRLSCAASYYAMGWYRQAPAKERELVASISSGGSTNYADSVKGRFTISRDNAKNTVFFQMNSLKPEDTAVYYCAADVADGVWVKIADEYWGQGTQVTVSS
- polyreactivity (PSR sort gate): low polyreactivity

Sequence: QVQLVESGGGLVQAGGSLRLSCAASGITFASYAMGWYRQAPGKERELVAVITRSTGRTYYADSVKGRFTISRDNAKNTVYLQMNSLKPEDTAVYYCAAGYITWYDYWGQGTQVTVSS
- polyreactivity (PSR sort gate): high polyreactivity

Sequence: QDQLVESGGGLVQAGVSLRLSCPASGNIFNGKAMGWYRQAPGKERELVAAISSGGGSTYYADSVKGRFTISRDNAMNTVYLQMNSLKPEDTAVYYCAASRVRYSYGYPYYYWGQGTQVTVSS
- polyreactivity (PSR sort gate): high polyreactivity

Sequence: QVQLVESGAGLVQAGGSLSLSCAASGSIWLYAMGWYRQAPGKEREFVAAITRRGSSTYYADSVKGRFTISRDNAKNPVLLQMNSLKPEDTAVYYCAGVSQYGKWRGDYWGQGTQVTVSS
- polyreactivity (PSR sort gate): high polyreactivity

Sequence: QVQLVESGGGLVQAGGSLRLSCAASGNIFGDNAMGWYRQAPGKERELVAAITRIDGNTYYADSVKGRFTISRDNAKNTVYLQMNSLKPEDTAVYYCATDEPVGRYQHNYYWGQGSQVTVSS
- polyreactivity (PSR sort gate): low polyreactivity

Sequence: QVQLVESGGGLVQAGGSLRLSCAASGRIFGYNAMGWYRQAPGKVRELVAAITTSGGSTYYADSVTGRFTISRDTAKNTVYLQMNSLKPEDTAVYYCARDSLQVFYQYASDDYWGQGTQVTVSS
- polyreactivity (PSR sort gate): low polyreactivity

Sequence: QVQLVESGGGLVQAGGSLRLSCAASGLTFQVYAMGWYRQAPGKERELVAGITRGGRTYYADSVKGRFTISRDNAKNTVYLQMNSLKPEDTAVYYCNADAPYGGPSWAKSRYEYWGQGTQVTVSS
- polyreactivity (PSR sort gate): low polyreactivity

Sequence: QVQLVESGGGLVQAGGSLRLSCAASGRTFAVNAMGWYRQAPGKESELVAAISQRAGRTYYADSVKGRFTISRDNAKNTVYLQMNSLKPEDTAVYYCNVVGFRSRVGSRGYWGQGTQVTVSS
- polyreactivity (PSR sort gate): high polyreactivity
